{"source": "paper PMC9620234", "about": "“Design, Synthesis, and Biochemical and Biological Evaluation of Novel 7-Deazapurine Cyclic Dinucleotide Analogues as STING Receptor Agonists” (Journal of Medicinal Chemistry, 2022)", "proteins": {"B1": {"name": "human wild-type STING truncated to residues 140–379 (domain or fragment, UniProt Q86WV6 140-379, looked up)", "chain": "APAEISAVCEKGNFNVAHGLAWSYYIGYLRLILPELQARIRTYNQHYNNLLRGAVSQRLYILLPLDCGVPDNLSMADPNIRFLDKLPQQTGDHAGIKDRVYSNSIYELLENGQRAGTCVLEYATPLQTLFAMSQYSQAGFSREDRLEQAKLFCRTLEDILADAPESQNNCRLIAYQEPADDSSFSLSQEVLRHLRQEEKEEVTVGSLKTSAVPSTSTMSQEPELLISGMEKPLPLRTDFS", "notes": "stimulator of interferon genes (STING), human, wild-type allele, UniProt Q86WV6, residues 140-379; Each crystal also holds one cyclic dinucleotide ligand (5f, 5k, 5l or 5m) in the site between the two chains; also called wt hSTING; stimulator of interferon genes; source: E. coli BL21 (DE3), purified (Ni-NTA, Ulp1 protease digestion, SEC, HiTrap Capto S)"}}, "target": "the molecule itself", "assay": "crystal structure; wt hSTING (140-379) co-crystallised with CDN 5f, 5k, 5l or 5m; sitting drop vapor diffusion, 18 °C; chains A/B with one ligand molecule", "data": [{"protein": "B1", "values": [{"measurement": "binding result", "result": "binds"}]}]}
